The values that follow come from FireProtDB (doi:10.1021/bi061295h).

The conditions of this data set: Equus caballus, pH 7.4, 25 °C, GdnHCl, reversible: Yes.

Cytochrome c wild type, P00004, sequence (P00004 whole entry): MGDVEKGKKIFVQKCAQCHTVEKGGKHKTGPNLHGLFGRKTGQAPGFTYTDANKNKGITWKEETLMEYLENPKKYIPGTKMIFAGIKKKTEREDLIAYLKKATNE

Cytochrome c wild type, P00004: for the setting “CD, Tris 20 mM”, the denaturant m value worked out at 2.8 kcal/mol/M and the unfolding free energy came to 7.4 kcal/mol. Moreover, where the note is “SUPREX, Sodium phosphate 20 mM”, the denaturant m value is 3 kcal/mol/M.
